# From publication PMC10786891, “Massively parallel profiling of RNA-targeting CRISPR-Cas13d”
# Changes are numbered by the printed parent chain. Names may count otherwise.
# T1: EsCas13d, nuclease-dead (Eubacterium siraeum, UniProt B0MS50, R295A;H300A;R849A;H854A)
# T1 sequence: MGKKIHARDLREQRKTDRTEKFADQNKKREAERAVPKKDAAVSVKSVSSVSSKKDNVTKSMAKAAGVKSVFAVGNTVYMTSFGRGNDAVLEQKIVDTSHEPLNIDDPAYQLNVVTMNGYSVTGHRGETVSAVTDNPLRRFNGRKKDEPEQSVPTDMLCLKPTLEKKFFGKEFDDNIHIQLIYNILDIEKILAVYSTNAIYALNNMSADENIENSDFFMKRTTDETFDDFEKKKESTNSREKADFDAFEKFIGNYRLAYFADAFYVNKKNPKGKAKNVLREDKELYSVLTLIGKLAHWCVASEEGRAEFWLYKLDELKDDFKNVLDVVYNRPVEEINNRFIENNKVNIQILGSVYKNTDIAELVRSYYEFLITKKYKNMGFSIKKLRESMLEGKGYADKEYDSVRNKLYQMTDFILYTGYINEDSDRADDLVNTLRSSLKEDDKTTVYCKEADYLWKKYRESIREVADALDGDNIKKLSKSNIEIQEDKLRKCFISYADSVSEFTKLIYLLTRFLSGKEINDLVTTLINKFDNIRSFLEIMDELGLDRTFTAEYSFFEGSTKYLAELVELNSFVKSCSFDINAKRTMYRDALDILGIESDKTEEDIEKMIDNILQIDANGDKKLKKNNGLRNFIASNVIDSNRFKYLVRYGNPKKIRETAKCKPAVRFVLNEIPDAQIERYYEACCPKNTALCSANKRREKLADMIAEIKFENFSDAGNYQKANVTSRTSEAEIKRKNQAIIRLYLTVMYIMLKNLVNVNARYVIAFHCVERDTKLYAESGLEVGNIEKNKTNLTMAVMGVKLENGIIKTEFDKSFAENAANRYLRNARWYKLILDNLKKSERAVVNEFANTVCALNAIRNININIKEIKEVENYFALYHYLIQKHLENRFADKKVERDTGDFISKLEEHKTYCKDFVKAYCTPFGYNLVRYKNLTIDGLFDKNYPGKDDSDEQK
# B1: target 1 insU 3' of 13,insG 3' of 10 (mixed)
# RNA 1: CACCCGUGCAAAAAUGCAGGGGUCUAAAACUGAGCGGAUAACCUCUCUAUGG
# RNA 2: GGGAAUGGAUCCACAUCUACGAAUUCGUACCAUAGAGAGUGUUGAUCCGCUCACCGAGAUCGGAAGAGCACACGU
# B2: target 1 insC 3' of 3,insA 3' of 2 (mixed)
# RNA 1: B1 RNA 1
# RNA 2: GGGAAUGGAUCCACAUCUACGAAUUCGUACCAUAGAGAGGUUAUCCGCUCCAACCGAGAUCGGAAGAGCACACGU
# B3: target 1 G12A,G17A (mixed)
# RNA 1: B1 RNA 1
# RNA 2: GGGAAUGGAUCCACAUCUACGAAUUCGUACCAUAAAGAGAUUAUCCGCUCACCGAGAUCGGAAGAGCACACGU
# B4: target 1 insC 3' of 19,insU 3' of 4 (mixed)
# RNA 1: B1 RNA 1
# RNA 2: GGGAAUGGAUCCACAUCUACGAAUUCGUACCAUCAGAGAGGUUAUCCGCUUCACCGAGAUCGGAAGAGCACACGU
# B5: target 1 A9G,G15C (mixed)
# RNA 1: B1 RNA 1
# RNA 2: B3 RNA 2 with A35G, G37C, A40G, A43G
# B6: target 1 G5C,U10G (mixed)
# RNA 1: B1 RNA 1
# RNA 2: B3 RNA 2 with A35G, A40G, U42G, G47C
# B7: target 1 insA 3' of 15,insA 3' of 13 (mixed)
# RNA 1: B1 RNA 1
# RNA 2: B1 RNA 2 with G39A, U40G, G41A, U42G, G44U
# B8: target 1 insG 3' of 21,insG 3' of 7 (mixed)
# RNA 1: B1 RNA 1
# RNA 2: B4 RNA 2 with A32G, U33A, C34U, C47G, G48C, C49G, U50C
# B9: target 1 insC 3' of 20,insA 3' of 7 (mixed)
# RNA 1: B1 RNA 1
# RNA 2: B4 RNA 2 with U33C, C34U, C47A, G48C, C49G, U50C
# B10: target 1 insC 3' of 16,insG 3' of 6 (mixed)
# RNA 1: B1 RNA 1
# RNA 2: B4 RNA 2 with C34A, A35G, G36A, A37C, C49G, U50C
# B11: target 1 insU 3' of 21,insG 3' of 7 (mixed)
# RNA 1: B1 RNA 1
# RNA 2: B4 RNA 2 with A32U, U33A, C34U, C47G, G48C, C49G, U50C
# B12: target 1 insU 3' of 13,insG 3' of 11 (mixed)
# RNA 1: B1 RNA 1
# RNA 2: B1 RNA 2 with U43G, G44U
# B13: target 1 U3C,U8A (mixed)
# RNA 1: B1 RNA 1
# RNA 2: B3 RNA 2 with A35G, A40G, U44A, U49C
# B14: target 1 insG 3' of 9,insG 3' of 8 (mixed)
# RNA 1: B1 RNA 1
# RNA 2: B1 RNA 2 with U40G, G41U, U43A, A45U, U46G
# B15: target 1 C6G,U10A (mixed)
# RNA 1: B1 RNA 1
# RNA 2: B3 RNA 2 with A35G, A40G, U42A, C46G
# B16: target 1 insA 3' of 21,insG 3' of 18 (mixed)
# RNA 1: B1 RNA 1
# RNA 2: B1 RNA 2 with U33A, A34U, G35A, A36G, U40A, U42G, G44U
# B17: target 1 insC 3' of 12,insG 3' of 7 (mixed)
# RNA 1: B1 RNA 1
# RNA 2: B1 RNA 2 with U40G, G41C, G44A, A45U, U46C, C47G
# B18: target 1 insG 3' of 22,insC 3' of 13 (mixed)
# RNA 1: B1 RNA 1
# RNA 2: GGGAAUGGAUCCACAUCUACGAAUUCGUACGCAUAGAGAGCGUUAUCCGCUCACCGAGAUCGGAAGAGCACACGU
# B19: target 1 complement block 2-12 (mixed)
# RNA 1: B1 RNA 1
# RNA 2: GGGAAUGGAUCCACAUCUACGAAUUCGUACCAUAGAGAGCAAUAGGCGAGACCGAGAUCGGAAGAGCACACGU
# B20: target 1 C6U,U10C (mixed)
# RNA 1: B1 RNA 1
# RNA 2: B3 RNA 2 with A35G, A40G, U42C, C46U
# B21: target 1 A1U,C21A (mixed)
# RNA 1: B1 RNA 1
# RNA 2: B3 RNA 2 with C31A, A35G, A40G, A51U
# B22: target 1 A1G,C21A (mixed)
# RNA 1: B1 RNA 1
# RNA 2: B3 RNA 2 with C31A, A35G, A40G, A51G
# B23: target 1 G13A,U19G (mixed)
# RNA 1: B1 RNA 1
# RNA 2: B3 RNA 2 with U33G, A35G, G39A, A40G
# B24: target 1 C7A,A9U (mixed)
# RNA 1: B1 RNA 1
# RNA 2: B3 RNA 2 with A35G, A40G, A43U, C45A
# B25: target 1 complement block 1-12 (mixed)
# RNA 1: B1 RNA 1
# RNA 2: B19 RNA 2 with A51U
# B26: target 1 C2U,U3C (mixed)
# RNA 1: B1 RNA 1
# RNA 2: B3 RNA 2 with A35G, A40G, U49C, C50U
# B27: target 1 C7U,A20C (mixed)
# RNA 1: B1 RNA 1
# RNA 2: B3 RNA 2 with A32C, A35G, A40G, C45U
# B28: target 1 C4G,U11G (mixed)
# RNA 1: B1 RNA 1
# RNA 2: B3 RNA 2 with A35G, A40G, U41G, C48G
# B29: target 1 C7G,A16U (mixed)
# RNA 1: B1 RNA 1
# RNA 2: B3 RNA 2 with A35G, A36U, A40G, C45G
# B30: target 1 A18U,A20U (mixed)
# RNA 1: B1 RNA 1
# RNA 2: B3 RNA 2 with A32U, A34U, A35G, A40G
# B31: target 1 A9G,G13U (mixed)
# RNA 1: B1 RNA 1
# RNA 2: B3 RNA 2 with A35G, G39U, A40G, A43G
# B32: target 1 insC 3' of 9,insG 3' of 9 (mixed)
# RNA 1: B1 RNA 1
# RNA 2: B1 RNA 2 with U40G, G41U, U43A, G44C, A45G
# B33: target 1 C4G,U8A (mixed)
# RNA 1: B1 RNA 1
# RNA 2: B3 RNA 2 with A35G, A40G, U44A, C48G
# Biological target: T1, EsCas13d, nuclease-dead
# Experiment: crRNA (strand 1, pre-loaded); Mg2+; 40 mM Tris-HCl pH 7.5, 150 mM NaCl, 6 mM MgCl2, 1 mM DTT, 0.1% Tween-20, 0.2 mg/ml BSA; 25 C; 10 min per concentration, then washed
# Conditions: tags: His6-TwinStrep-SUMO cleaved; N-terminal SNAP kept (SNAP-Surface 488); label: 3' end held by stalled T7 RNA polymerase
row,Binder,Kd [nM]
1,B1,63 ± 23
2,B2,13.6 ± 1.2
3,B3,30.8 ± 3.2
4,B4,32.2 ± 3.2
5,B5,67 ± 20
6,B6,17.5 ± 0.9
7,B7,5.63 ± 0.28
8,B8,68 ± 5
9,B9,7.49 ± 0.35
10,B10,~100
11,B11,23.6 ± 2
12,B12,39 ± 8
13,B13,18.7 ± 1.5
14,B14,17.2 ± 1.3
15,B15,8.6 ± 0.6
16,B16,77 ± 20
17,B17,16.2 ± 0.9

row,Binder,Kd [nM]
1,B18,44 ± 6
2,B19,23.4 ± 1.6
3,B20,19.7 ± 0.8
4,B21,25.3 ± 3.1
5,B22,27 ± 4
6,B23,80 ± 40
7,B24,7.5 ± 0.4
8,B25,19.6 ± 1
9,B26,16.6 ± 1.7
10,B27,37 ± 8
11,B28,5.73 ± 0.29
12,B29,53 ± 4
13,B30,95 ± 17
14,B31,53 ± 6
15,B32,18.5 ± 1.2
16,B33,7.4 ± 0.4
